Experimental data as given in the DeepSol protein solubility set.

assay: soluble on expression in E. coli; label from the status in PepcDB or PDB records

Sequence | soluble on expression in E. coli
AWVDQTPRTATKETGESLTINCVLRDASYGLESTGWYRTKLGSTNEQTISIGGRYVETVNKGSKSFSLRIRDLRVEDSGTYKCGAFRFWLPYGYGSLPLSEKGAGTVLTVK | soluble
MEKERYFQAETEGEQPETKAEEATAAITQLGQTNVPQMDPDTNIHCLTIVGQIEGHIQLPPQNKATKYEHVIPQIVAIEQNPKIEGLLVILNTVGGDVEAGLAIAEMLASLSKPTVSVVLGGGHSIGVPIAVSCNYSFITETATMTIHPIRLTGLVIGVPQTFEYLDKMQERVVRFVTKHSKISEEKFKELMFSKGNLTRDIGTNVVGPDAVRYGLIDEVGGVSQAMAKLRELIAMRKNGEGKMIQ | not soluble
SLSLRPSPRLLCTATKQKNSGQNLEEDMGQSEQKADPPATEKTLLEEKVKLEEQLKETVEKYKRALADTENLRQRSQKLVEEAKLYGIQAFCKDLLEVADVLEKATQCVPKEEIKDDNPHLKNLYEGLVMTEVQIQKVFTKHGLLKLNPVGAKFDPYEHEALFHTPVEGKEPGTVALVSKVGYKLHGRTLRPALVGVVKEA | soluble
MSDAHVLKSRLEWGEPAFTILDVRDRSTYNDGHIMGAMAMPIEDLVDRASSSLEKSRDIYVYGAGDEQTSQAVNLLRSAGFEHVSELKGGLAAWKAIGGPTEGIIESRLEHHHHHH | not soluble
MSLQDVDFHIPFPSRRSPDFERARADHLSWPRALGLIGTDAAAERHSRGGYADLAARFYPSATGADLDLGVDLMSWFFLFDDLFDGPRGEDPQETRKLTDAVAAALDGPLPTSAPPIAHGFADVWRRTCQGMSPAWRARSARHWRNYFSGYVDEAVSRHLNTPYDSAGHYLAMRRQTIGVQPTVDLAERSCHCEVPQRVFDSAVLFAMLQIATDTNLILNDIASLEKEEARGELNNMVFILMREHGWTRGRSIAHMQDGVRTRLEQFLLLEACLPKVYDTFELTAQERESAEKYRMDGVRSVIRGSYDWHRSSGRYAADYAEGHHHHHH | soluble
MEKNGYIDPYTTVMNYLSITPGKWEIKYNENIRGISGKEHRFDAVYRSQEGEIVTVMVVLRTEDLEKRLDDFKNGSKDVRAKRKFLIVCGEINSDMVSELKSENISILMLPGMFCSQVSSYNADAGSNDAPRSLPDGGIEESQRKRSRANIIMDLIRAINENSNQIPVTRLFYACNINHRMGRSIIEDLEHAGIVILRKTGPNRNVVELTRKGISLINDYEFIREILEK | not soluble
NDSPFYVNPNMSSAEWVRNNPNDPRTPVIRDRIASVPQGTWFAHHNPGQITGQVDALMSAAQAAGKIPILVVSNAPGRDCGNHSSGGAPSHSAYRSWIDEFAAGLKNRPAYIIVEPDLISLMSSCMQHVQQEVLETMAYAGKALKAGSSQARIYFDAGHSAWHSPAQMASWLQQADISNSAHGIATNTSNYRWTADEVAYAKAVLSAIGNPSLRAVIDTSRNGNGPAGNEWCDPSGRAIGTPSTTNTGDPMIDAFLWIKLPGEADGCIAGAGQFVPQAAYEMAIAA | soluble
MGSDKIHHHHHHMPELTEFQKKRLENIKRNNDLLKKLHLSGVASQIKHEAGVLEKSRAPAKKKQKTTNTRATKSASPTLPTRRSRRLRGESADDVKGIPNVNDNQLLKMGSPDGQDKNFIDAIKEKPVIGDVKLSDLIKDEDESALLEKFKRFNNGNFSSGDFFEEIKKRQGDVTGMDEFDLDLYDVFQPNEIKITYERISATYFHPAMEKKLIIAGDTSGTVGFWNVRDEPLADSEEDRMEEPDITRVKLFTKNVGRIDCFPADTSKILLTSYDGSIRSVHLNNLQSEEVLTLKNEYDDSLGISDCQFSYENPNVLFLTTLGGEFTTFDTRVKKSEYNLRRLADKKIGSMAINPMRPYEIATGSLDRTLKIWDTRNLVKKPEWSQYEDYPSHEIVSTYDSRLSVSAVSYSPTDGTLVCNGYDDTIRLFDVKSRDHLSAKLEPKLTIQHNCQTGRWTSILKARFKPNKNVFAIANMKRAIDIYNSEGQQLAHLPTATVPAVISWHPLRNWIAGGNSSGKIFLFTDDSGTIKQEE | not soluble
MAHHHHHHMHNSVPASNTCSPFREETVSKRGKRSRGTGGDDKITRGTCSQPFSVITLPPGKLLEWLVCSPCRVYDVNLPRSRNNDNNISSLQCAVLPNFFVEYGGRSYSCVAKVCKPQLRKVLLRALAAVRQEMGSVDDIPHDSLLVVAVSPINAFSSECIHDASRTAMPRAREGCKIVGLCVARELSAPHRMHCESNWSHEKSEASGVGAAVQEGLGDCWEEDATRVGGTNNVRKAFCGVQLVWVADCYRRHGVAKVLVDTARRHISYGFEVPVERVAFSEPTSLGKLFAKSYSGRPDFLIF | not soluble
METKDLIVIGGGINGAGIAADAAGRGLSVLMLEAQDLACATSSASSKLIHGGLRYLEHYEFRLVSEALAEREVLLKMAPHIAFPMRFRLPHRPHLRPAWMIRIGLFMYDHLGKRTSLPGSTGVRFGADSVLKPEIVRGFEYSDCWVDDARLVLANAQMVVRKGGEVLTRTRATAARRENGLWIVEAEDIDTGKKYVWQARGLVNATGPWVKQFFDEGMHLPSPYGIRLIKGSHIVVPRVHNQKQAYILQNEDKRIVFVIPWMEEFSIIGTTDVEYKGDPKAVKIEESEINYLLKVYNAHFQKQLGRDDIVWTYSGVRPLCDDESDSPQAITRDYTLDIHDENGKAPLLSVFGGKLTTYRKLAEHAMEKLASYYPGIGPAWTKTCVLPGGDIDGSREDYAAKLRRRYPFLTESLARHYSRTYGSNTEWILGEATSLLDLGEDFGHEFYEAELKYLVDHEWVRRTEDAIWRRTKEGMWLTAEQQSRITQWLAAYVEKHQLSMAS | not soluble
MQVSVRDNNVDQALRALKKKLQREGVFREMKLKQHFEKPSEKKAREKAEAIRRARKLARKKAQREGMLLEHHHHHH | not soluble
MAHHHHHHMSSSAVPAYEGKQKVYALLNGTFHAAIVLEVAEDATEGGFLYYVRYVEQDSRLDQWLQASDIKERHQGRTHHGSSCTHQQYTPSGIKTRRQSHVTEQQNAETAVLTGEGVGMPTEVSANAKGGGAAPHLVKVSKTRARRDSAFFSRTKNIYSICMGPHEVETWYFSPYHLARPEVQQRLQAASQCVTGSTELQLVQSTTSPGGTSGVSTGIADVGGGAGGTGNVSVGAGGSGRGSGAGMRQWPIATRSFSLHICPYCLRPFLDNAAVVRHLQQDCLRHPPGNEIYRDPVRRLVVLELDGSLEPTFCEHLALLSKLFLEHKALDHDMTPFLFYVLCSVETHGLQVLGYFSKEKQTPEPYNLSCILVLPQYQSRGIGRFLIELSYELSRREGKVGTPEKPLSDLGEKLYLSYWADSVTMAIARAMEEGHCVSVDYLVQATAMIQADVIRALQHQKLLNGHQLTISEDIVERCYTKRLTKERDITSYTFYTHLLSWAPGFYEEFRGVPPAPTFVPWRDPSAPHSRTGG | not soluble
MRSRRVDVMDVMNRLILAMDLMNRDDALRVTGEVREYIDTVKIGYPLVLSEGMDIIAEFRKRFGCRIIADFKVADIPETNEKICRATFKAGADAIIVHGFRGADSVRACLNVAEEMGREVFLLTEMSHPGAEMFIQGAADEIARMGVDLGVKNYVGPSTRPERLSRLREIIGQDSFLISPGVGAQGGDPGETLRFADAIIVGRSIYLADNPAAAAAGIIESIKDLLNP | not soluble
MVKSMIAVISDIHSNLEALNAVLNDIKNRGIKKIFCLGDIVGYGANPNECVELIRDLNCLSVVGNHDYGVLGKESLDYFNKYGAIAILWTKKVIKNENLKFLDSLPLIIEENIKGKKVIFSHANPKHPEIWEYLFPDYVDDVFNYGDLIFVGHSHIPFVNSEEGNLLLHEGKIYLDEDKKYLINPGSVGQPRDGINKASYCIFDEKDFKIEIVRVEYDIKKAYEKIVKNRLPEWLGERLFLGR | soluble
MSLKTSHLKEVPETLAMRESLRDRCAQVAAKLDRSHPMTKDEMEQISRRMLEEADLPESYLGWVMVMISSEFWADALASVPPERRLFLLPHCLKHAEGCPAEYDQFGMNCKECGACSIADFRSIAEDMGYRVLVAEGSPVVMKIIVGGYVDAVVGVACLNVLEKAIDKVLLAGIPCMAVPLLSSDCRNTKVDEPWVEQMIRTPYKPAAAKTKSYVHLMRAAGLLFEDTLFERLAEGHHHHHH | not soluble
MNQTKTTTDDNKNSKPAETESTITVPEWITETINGGSFCHVDLETGTNGWASPPGNVFSLRSHNYFTATKQKSPGGDYLLSLAAVDWLKSTTKKLDHILSRPDNRVIHAFKTSQSRSFIFAVNFQVPGKEHYNLVFYFATQKPIPSDSLLHKFINTDEDSFRNERFKIVSNVVKGPWVVKAAAGKFGAFVAGKAMKCTYYRGDNYFEVDVDISSSAIMTALIRFMLGYVTYLMVDIGFVVEAQTAEELPERLIGGARICHMELSSSFLVDDDEKKSLQPRRRMMGAAEDNDDEI | soluble
MSAVEQFVSYCRDEIEIVARLVDLLEQEQKLLIRGESLQLEPLADRKSEVLDQLAAQSAQRGRLMESLGVQDKDTLYIWLADKPSACKEWTRLEDAVNRAQSINQLNAAFVDERLAQVESSLDVLRTAAASTLGYGPDGQPPELVSGRRLLGSA | not soluble
VIDALRNNNDYEPYNKDSNNQAFNSEEITRFFSIGKYTYPSIFSELNFIINAREAFVSIQTSTIPKTAYAAVNFVETQGEDESYTDSLSTDNKRDIYADFAVIEIPLFLTNHRDYQVFNEFIKPAIETYKQLGNSSFEKKQLDQHKNDNFYMLGYPLVESSIDALILNQRRQYNNSYTEKYTPQTLTKDQRTIDLSREVPTLIQNKTENSTGSQLLVNQSLSSTSEGIIE | not soluble
GPGSMKKFMLNTKASLGLVGEKTVDEDYNKRSASLKALNEALNEYSTAMDKAKHAMREVMHSLGKASKAFEKLNSGSCIPEPLKDFSEDFKKAIEHLQQYALQEFMNTMETTVIKTGHAIRADYEECVRVDQQRQKTVNEYDVYRSAVDKKETEYAKKGKDLKESKTYEEDTKTRDELKADYEASDKLFKSSHDALESNVVSKGRLCMREFFCCTSEFLSALSTEMKRLHEKSLLLGA | not soluble
PIGKSADNMYSYLALVQDDPTVQVVNMAQKAYVEHYIQGDPDLAKLPVLSAAAPFKVGGRKNDPASFVEVEKGQLTFRNAADLYLYPNTLVVMKVSGKEVKEWLECSAGQFNQIDPASSKPQSLINWDGFRTYNFDVIDGVNYQIDVTQPARYDGECQMIHPQAERIKHLTFNGKPVDPQATFLVATNNYRAYGGKFAGTGESHIAFASPDENRSVLAAWIGAQSKKEGAIHPAADNNWRLAPI | not soluble
MSLGKYFGTDGVRGVANSELTPELAFRLGRMGGYVLTRHVGEHPRVLVARDTRISGEMLESALIAGLVSVGIEVMRLGVISTPGVAYLTKAQGASASVMISASHNPVDDNGIKFFGSDGFKLSDDQEEEIEQLLDTAEDTLPRPSGEGLGTVSDYFEGKQKYIQYLKQTIENDFNGYHIALDCANGATSGLATHLFADLDADISSMGASPNGLNINDGVGSTHPEALAAFVLDKKADVGLAFDGDGDRVIAIDEIGQIVDGDKIMFICAKYLREQGLLNNNTIVSTVMSNLGFYKGLKELEIEDVQTAVGDRYVVEAMREGNYNLGGEQSGHIIFLDHNTTGDGLLSGIQLINVMKATGKKLSELAAEMKTFPQKLENIRVSDKNHVTDNPKVSKVIGEVEAEMAGNGRVLVRPSGTEPLVRVMVEAATKEETDEYCERISAVVRSEMALNDEGHHHHHH | soluble
GSHMASMTGGQQMGRGSMVKVLTACGNGMGSSMVIKMKVENALRQLGVSDIESASCSVGEAKGLASNYDIVVASNHLIHELDGRTNGKLIGLDNLMDDNEIKTKLEEALK | soluble
PTGNNAEICLLPLDYGPCRALLLRYYYDRYTQSCRQFLYGGCEGNANNFYTWEACDDACWRIE | soluble
